Values quoted from earlier work in PMC9274133.

How the values were obtained:
IL-6R (Homo sapiens) = IL-6R (Homo sapiens) (UniProt P08887)
IL-11R (Homo sapiens) = IL-11R (Homo sapiens) (UniProt Q14626)
gp130 (Homo sapiens) = gp130 (Homo sapiens) (UniProt P40189)
gp130 (Homo sapiens), sequence (P40189 23-619): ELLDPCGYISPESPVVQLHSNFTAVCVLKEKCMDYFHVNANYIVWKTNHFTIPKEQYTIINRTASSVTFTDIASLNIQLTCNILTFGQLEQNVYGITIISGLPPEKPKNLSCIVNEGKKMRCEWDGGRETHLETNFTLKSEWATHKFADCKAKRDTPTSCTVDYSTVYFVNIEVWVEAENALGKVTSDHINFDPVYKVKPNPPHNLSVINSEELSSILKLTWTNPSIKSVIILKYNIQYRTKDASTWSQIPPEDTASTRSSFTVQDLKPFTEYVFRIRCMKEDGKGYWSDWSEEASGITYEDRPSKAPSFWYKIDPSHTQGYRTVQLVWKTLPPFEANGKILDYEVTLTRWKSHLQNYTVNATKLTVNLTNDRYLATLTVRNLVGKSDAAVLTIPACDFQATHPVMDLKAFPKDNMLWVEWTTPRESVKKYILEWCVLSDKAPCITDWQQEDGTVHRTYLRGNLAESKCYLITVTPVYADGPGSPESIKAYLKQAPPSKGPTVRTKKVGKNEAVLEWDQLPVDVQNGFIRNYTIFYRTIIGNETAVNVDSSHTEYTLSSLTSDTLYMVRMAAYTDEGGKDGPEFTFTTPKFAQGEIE

IL-6R (Homo sapiens), sequence (P08887 20-355): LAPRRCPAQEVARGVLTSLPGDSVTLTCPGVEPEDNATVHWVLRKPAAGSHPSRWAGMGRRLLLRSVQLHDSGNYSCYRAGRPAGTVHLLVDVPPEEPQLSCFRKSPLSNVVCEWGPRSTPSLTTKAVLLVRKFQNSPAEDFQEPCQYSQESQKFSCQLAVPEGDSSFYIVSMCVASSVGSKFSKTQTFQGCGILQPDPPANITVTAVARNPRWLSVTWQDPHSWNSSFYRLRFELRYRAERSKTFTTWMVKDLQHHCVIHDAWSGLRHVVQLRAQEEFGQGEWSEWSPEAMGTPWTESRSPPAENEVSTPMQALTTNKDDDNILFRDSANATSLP
IL-11R (Homo sapiens), sequence (Q14626 23-370): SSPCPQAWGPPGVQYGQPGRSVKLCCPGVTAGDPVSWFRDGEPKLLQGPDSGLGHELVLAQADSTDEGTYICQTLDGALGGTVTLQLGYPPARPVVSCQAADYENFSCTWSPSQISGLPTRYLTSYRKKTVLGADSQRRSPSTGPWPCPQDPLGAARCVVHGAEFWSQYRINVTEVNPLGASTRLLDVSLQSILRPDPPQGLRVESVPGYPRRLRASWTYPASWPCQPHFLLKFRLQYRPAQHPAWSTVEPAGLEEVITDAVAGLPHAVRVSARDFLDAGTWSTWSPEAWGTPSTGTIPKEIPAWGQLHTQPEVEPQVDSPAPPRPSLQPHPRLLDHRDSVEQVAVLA
IL-11, sequence (P20809 22-199): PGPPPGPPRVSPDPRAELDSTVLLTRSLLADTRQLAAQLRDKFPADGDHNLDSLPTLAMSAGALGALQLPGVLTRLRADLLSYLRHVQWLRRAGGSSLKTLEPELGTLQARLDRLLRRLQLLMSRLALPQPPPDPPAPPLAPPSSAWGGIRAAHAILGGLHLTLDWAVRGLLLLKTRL

IL-6 (from UniProt P05231)
Kd (IL-6R (Homo sapiens)): 1 nM

IL-11 (from UniProt P20809)
Kd (IL-11R (Homo sapiens)): 10 nM

IL-6/IL-6R complex (from UniProt P05231)
Kd (gp130 (Homo sapiens)): 0.01 nM
